Values quoted from earlier work in paper PMC6815250.

Biological target: RgpB pro-fragment pro-fragment (Porphyromonas gingivalis) (UniProt P95493)

Sequence of RgpB (P95493 230-736): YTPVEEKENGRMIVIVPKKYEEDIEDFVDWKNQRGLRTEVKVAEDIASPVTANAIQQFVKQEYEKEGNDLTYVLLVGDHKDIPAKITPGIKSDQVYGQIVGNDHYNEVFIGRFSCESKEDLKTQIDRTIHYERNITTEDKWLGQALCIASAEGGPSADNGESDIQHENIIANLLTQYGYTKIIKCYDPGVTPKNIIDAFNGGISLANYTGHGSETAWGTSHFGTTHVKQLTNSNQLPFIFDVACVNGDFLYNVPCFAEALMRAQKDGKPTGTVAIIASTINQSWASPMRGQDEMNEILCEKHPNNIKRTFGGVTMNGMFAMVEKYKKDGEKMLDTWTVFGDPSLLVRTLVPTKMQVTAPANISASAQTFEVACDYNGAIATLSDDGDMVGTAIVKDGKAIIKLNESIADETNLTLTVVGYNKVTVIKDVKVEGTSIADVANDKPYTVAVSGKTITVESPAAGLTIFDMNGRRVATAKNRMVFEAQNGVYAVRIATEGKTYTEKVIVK

In the case of RgpB (from UniProt P95493), the Ki is listed as 6.3 nM.
